What was measured:
Raf-1 RBD (GST-RBD) [1] = target: T1, Raf-1 RBD (GST-RBD) (UniProt P04049 P04049:51-131); assay: filter; PBS + 5 mM MgCl2, 37 C; conditions: tags: GST fusion, expressed in E. coli; label: 5'-32P
Protocol: (§1) An RNA (4 nM) of which the 5'-terminus was labeled and 50 to 1,250 nM of GST-RBD were incubated in 600 µl of a binding buffer at 37° C. for 30 minutes. The culture was filtered with a nitrocellulose filter, and the radioactivity on the filter was measured. The Kd value was calculated using a software: Kalleider Graph (Bell, S. D., et al., (1998) J. Biol. Chem. 273, 14309–14314).

Raf-1 RBD (GST-RBD) [2] = target: T1, Raf-1 RBD (GST-RBD); assay: filter; group 1; value only in figure; PBS + 5 mM MgCl2, 37 C; conditions: tags: GST fusion, expressed in E. coli; label: 32P
Protocol: The interaction between the 10 RNAs among them and GST-RBD was examined by a binding assay using a nitrocellulose filter.
as §1

Raf-1 RBD (GST-RBD) [3] = target: T1, Raf-1 RBD (GST-RBD); assay: filter; scarcely bound; no inhibition of Ras binding at 12.5 uM; conditions: tags: GST fusion, expressed in E. coli; label: 32P
Raf-1 RBD (GST-RBD) [4] = target: T1, Raf-1 RBD (GST-RBD); assay: filter; group 1; percent bound only in figure; conditions: tags: GST fusion, expressed in E. coli; label: 32P

B1: RNA aptamer SEQ ID NO:28 (3'-truncated) (ssRNA)
RNA: GGGAGUGGAGGAAUUCAUCGAGGCAUAUGUCGACUCCGUCUUCCUUCAAACCAGUUAUAAAUUGGUUUUAGCAUAUGCCU
- Kd (Raf-1 RBD (GST-RBD) [1]): 176 nM

B2: clone 21.07 (ssRNA)
RNA: GGGAGAUCAGAAUAAACGCUCAAUUGACUCAAUGGCGUACAAUGGAUUCGUUCUCAUAACCAAAACCCUUACCCCUUGGACUGUUCGACAUGAGGCCCCUGCAGGGCG
- binding result (Raf-1 RBD (GST-RBD) [2]): binds

B3: RNA aptamer SEQ ID NO:26 (ssRNA)
RNA: GGGAGUGGAGGAAUUCAUCGAGGCAUGACCUCCCGUGGCAGUAGGGGUAAAAAUUAUCUUCCUACACUUCUCAUGCCUUAGCGACAGCAAGCUUCUGC
- Kd (Raf-1 RBD (GST-RBD) [1]): 295 nM

B4: clone 21.12 (ssRNA)
RNA: GGGAGAUCAGAAUAAACGCUCAAGCGACAAGCAGCAGAUAAAGUUGAGCGCAACGCCGCUACAGAACCAAAUUAACAUGUAUGUUCGACAUGAGGCCCCUGCAGGGCG
- binding result (Raf-1 RBD (GST-RBD) [3]): no binding

B5: RNA aptamer SEQ ID NO:25 (ssRNA)
RNA: GGGAGUGGAGGAAUUCAUCGAGGCAUAUGUCGACUCCGUCUUCCUUCAAACCAGUUAUAAAUUGGUUUUAGCAUAUGCCUUAGCGACAGCAAGCUUCUGC
- Kd (Raf-1 RBD (GST-RBD) [1]): 124 nM

B6: clone 21.06 (ssRNA)
RNA: GGGAGAUCAGAAUAAACGCUCAACUGAUCAAUGGCGUACAAUGGAUUCGUUCUCAUAACCAAAACCCUUACCCCUUGGACUGUUUCGACAUGAGGCCCCUGCAGGGCG
- binding result (Raf-1 RBD (GST-RBD) [4]): binds

B7: clone 21.03 (ssRNA)
RNA: GGGAGAUCAGAAUAAACGCUCAACUGAUCAAUGGCGUACAAUGGAUUCGUUCUCAUAACCAAAACCCUUACCCCUUGGACUGCUUCGACAUGAGGCCCCUGCAGGGCG
- binding result (Raf-1 RBD (GST-RBD) [4]): binds

B8: clone 21.01 (ssRNA)
RNA: GGGAGAUCAGAAUAAACGCUCAACUGAUCAAUGGCGUACAAUGGAUUCGUUCUCAUAACCAAAACCCUUACCCCUUGGACUGAUUCGACAUGAGGCCCCUGCAGGGCG
- binding result (Raf-1 RBD (GST-RBD) [2]): binds

B9: clone 21.05 (ssRNA)
RNA: GGGAGAUCAGAAUAAACGCUCAACUGAUCAAUGGCGUACAAUGGAUUCGUUCUCAUAACCAAAACCCUUACUCCUUGGACUGCUUCGACAUGAGGCCCCUGCAGGGCG
- binding result (Raf-1 RBD (GST-RBD) [4]): binds

B10: clone 21.04 (ssRNA)
RNA: GGGAGAUCAGAAUAAACGCUCAACUGAUCAAUGGCGUACAAUGGAUUCGCUCUCAUAACCAAAACCCUUACCCCUUGGACUGCUUCGACAUGAGGCCCCUGCAGGGCG
- binding result (Raf-1 RBD (GST-RBD) [4]): binds

B11: clone 21.02 (ssRNA)
RNA: GGGAGAUCAGAAUAAACGCUCAACUGAUCAAUGGCGUACAAUGGAUUCGUUCUCAUAACCAAAACCCUUACCCCUGGACUGAUUCGACAUGAGGCCCCUGCAGGGCG
- binding result (Raf-1 RBD (GST-RBD) [4]): binds

B12: clone 21.08 (ssRNA)
RNA: GGGAGAUCAGAAUAAACGCUCAAUUGAAGAUCGUACAAUGGAUUCGAUCAUAACCCGAAGUUUUUAAACACUCUUUACCUGUAUUCGACAUGAGGCCCCUGCAGGGCG
- binding result (Raf-1 RBD (GST-RBD) [4]): binds
